B1: T7 phage displaying RPARPAR (SEQ ID NO:2) (peptide)
chain: RPARPAR
notes: also called RPARPAR phage; RPARPAR T7; not shown: T7 bacteriophage major coat protein gp10 (T7-select display system); Limits
B2: T7 phage displaying RPARPARA (SEQ ID NO:3) (peptide)
chain: RPARPARA
notes: not shown: T7 bacteriophage major coat protein gp10 (T7-select display system); Limits

What was measured:
[1] = biological target: T1, triple mutant S346A-E348A-T349A NRP-1 expressed on transiently transfected M21 melanoma cells (UniProt O14786 22-923, limits assumed); experiment: phage binding to transiently transfected M21 melanoma cells, titration
T1 construct: whole, on cells; The stated codon change SKET to AKAA gives T349A; also called Mutant NRP-1

[2] = biological target: T2, wild-type NRP-1 expressed on transiently transfected M21 melanoma cells (UniProt O14786 22-923); experiment: phage incubated with M21 cells transiently transfected with NRP-1, immunostaining and confocal imaging
T2 construct: whole, on cells; the printed SKET at 346-349 fits human NRP-1; also called wild type NRP-1 cDNA in pcDNA3.1(+)
T2 sequence (O14786 22-923 limits assumed): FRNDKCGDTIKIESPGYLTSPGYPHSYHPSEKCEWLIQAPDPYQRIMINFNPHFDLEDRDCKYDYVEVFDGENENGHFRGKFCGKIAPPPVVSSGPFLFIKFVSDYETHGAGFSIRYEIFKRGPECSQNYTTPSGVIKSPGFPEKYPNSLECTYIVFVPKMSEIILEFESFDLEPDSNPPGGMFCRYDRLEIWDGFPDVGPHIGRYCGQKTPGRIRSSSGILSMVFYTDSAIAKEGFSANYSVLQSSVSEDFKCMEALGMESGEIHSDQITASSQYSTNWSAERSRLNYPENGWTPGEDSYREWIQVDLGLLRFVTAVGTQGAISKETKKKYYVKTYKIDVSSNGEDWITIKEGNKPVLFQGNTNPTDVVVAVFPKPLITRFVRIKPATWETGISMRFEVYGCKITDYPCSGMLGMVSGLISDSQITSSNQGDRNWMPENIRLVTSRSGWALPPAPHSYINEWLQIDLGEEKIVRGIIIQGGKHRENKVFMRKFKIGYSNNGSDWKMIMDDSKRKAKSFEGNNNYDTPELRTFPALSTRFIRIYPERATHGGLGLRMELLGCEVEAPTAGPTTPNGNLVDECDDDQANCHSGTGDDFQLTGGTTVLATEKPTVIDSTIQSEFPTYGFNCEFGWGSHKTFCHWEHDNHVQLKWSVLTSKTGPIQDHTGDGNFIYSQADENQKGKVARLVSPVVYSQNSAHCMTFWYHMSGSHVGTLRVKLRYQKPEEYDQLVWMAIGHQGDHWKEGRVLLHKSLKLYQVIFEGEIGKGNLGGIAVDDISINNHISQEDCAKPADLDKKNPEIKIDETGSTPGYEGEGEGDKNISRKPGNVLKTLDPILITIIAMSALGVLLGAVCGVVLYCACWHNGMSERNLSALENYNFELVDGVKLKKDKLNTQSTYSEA

Binder	binding result [1]	binding result [2]
B1	no binding	
B2		no binding

Source: patent publication US20090226372A1 (SANFORD BURNHAM MEDICAL RESEARCH INSTITUTE, published 2009)
